Assay results as given in article PMC10199020.

Molecular target: NL-IL23R co-expressed with IL12Rβ1 (IL-23 receptor on cells) (UniProt Q5VWK5)
Test: FRET or BRET; NanoBRET competition on living transfected HEK293T cells; 300 pM IL23-TMR displaced by unlabelled antagonist (concentration series or a single concentration); 1 h at 37 °C in HBSS with 1 mg/mL BSA

Sequence of NL-IL23R co-expressed with IL12Rβ1 (IL-23 receptor on cells) (Q5VWK5 24-629, chain 1 of 2, other chains not shown): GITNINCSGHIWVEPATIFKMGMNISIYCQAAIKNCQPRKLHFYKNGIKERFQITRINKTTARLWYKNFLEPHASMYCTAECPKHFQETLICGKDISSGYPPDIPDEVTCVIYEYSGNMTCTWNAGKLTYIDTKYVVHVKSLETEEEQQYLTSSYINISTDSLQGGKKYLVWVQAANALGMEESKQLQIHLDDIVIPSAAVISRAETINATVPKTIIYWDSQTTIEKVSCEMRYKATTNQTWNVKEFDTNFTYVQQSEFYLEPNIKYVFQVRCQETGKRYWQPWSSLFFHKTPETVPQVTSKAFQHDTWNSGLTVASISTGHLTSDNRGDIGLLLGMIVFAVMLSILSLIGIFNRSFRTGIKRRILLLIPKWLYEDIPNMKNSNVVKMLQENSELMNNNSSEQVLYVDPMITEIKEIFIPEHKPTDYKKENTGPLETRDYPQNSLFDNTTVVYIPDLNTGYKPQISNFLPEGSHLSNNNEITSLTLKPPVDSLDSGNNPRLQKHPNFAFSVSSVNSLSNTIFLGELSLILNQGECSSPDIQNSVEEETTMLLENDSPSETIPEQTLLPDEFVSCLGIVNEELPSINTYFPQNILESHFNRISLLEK

IL12p80 (from UniProt P29460 23-328) (ligand)
Ki: 469 pM
